Data: patent US20190361034A1
Values belong to the substance of their own block, whether it stands above or below them.

Key:
[1] = target: MHC class II molecules on MHC class II-expressing Raji cells (human); assay: direct ELISA, plate-immobilised Raji cells; 5% BSA, 10,000 cells; 62.5 ng/ml
[2] = target: MHC class II molecules on MHC class II-expressing Raji cells (human); assay: direct ELISA, plate-immobilised Raji cells; 10% FBS, 5,000 cells; 500 ng/ml
[3] = target: MHC class II molecules on MHC class II-expressing Raji cells (human); assay: transfer cell ELISA, Raji cells; 31.25 ng/ml; plate row D
[4] = target: MHC class II molecules on MHC class II-expressing Raji cells (human); assay: transfer cell ELISA, Raji cells; 7.813 ng/ml; plate row C
[5] = target: MHC class II molecules on MHC class II-expressing Raji cells (human); assay: direct ELISA, plate-immobilised Raji cells; 10% FBS, 2,500 cells; 250 ng/ml
[6] = target: MHC class II molecules on MHC class II-expressing Raji cells (human); assay: direct ELISA, plate-immobilised Raji cells; 5% BSA, 5,000 cells; 1000 ng/ml
[7] = target: MHC class II molecules on MHC class II-expressing Raji cells (human); assay: direct ELISA, plate-immobilised Raji cells; 5% BSA, 10,000 cells; 31.25 ng/ml
[8] = target: MHC class II molecules on MHC class II-expressing Raji cells (human); assay: transfer cell ELISA, Raji cells; 250 ng/ml; plate row C
[9] = target: MHC class II molecules on MHC class II-expressing Raji cells (human); assay: direct ELISA, plate-immobilised Raji cells; 5% BSA, 5,000 cells; 15.625 ng/ml
[10] = target: MHC class II molecules on MHC class II-expressing Raji cells (human); assay: transfer cell ELISA, Raji cells; 62.5 ng/ml; plate row C
[11] = target: MHC class II molecules on MHC class II-expressing Raji cells (human); assay: transfer cell ELISA, Raji cells; 500 ng/ml; plate row D
[12] = target: MHC class II molecules on MHC class II-expressing Raji cells (human); assay: direct ELISA, plate-immobilised Raji cells; 5% BSA, 10,000 cells; 125 ng/ml
[13] = target: MHC class II molecules on MHC class II-expressing Raji cells (human); assay: direct ELISA, plate-immobilised Raji cells; 5% BSA, 5,000 cells; 500 ng/ml
[14] = target: MHC class II molecules on MHC class II-expressing Raji cells (human); assay: transfer cell ELISA, Raji cells; 1.953 ng/ml; plate row C
[15] = target: MHC class II molecules on MHC class II-expressing Raji cells (human); assay: transfer cell ELISA, Raji cells; 1000 ng/ml; plate row D
[16] = target: MHC class II molecules on MHC class II-expressing Raji cells (human); assay: transfer cell ELISA, Raji cells; 62.5 ng/ml; plate row D
[17] = target: MHC class II molecules on MHC class II-expressing Raji cells (human); assay: direct ELISA, plate-immobilised Raji cells; 5% BSA, 2,500 cells; 31.25 ng/ml
[18] = target: MHC class II molecules on MHC class II-expressing Raji cells (human); assay: BLI; immobilised sample, Raji cells in solution; control of FIG. 18 (37° C., 1 day, no H2O2)
[19] = target: MHC class II molecules on MHC class II-expressing Raji cells (human); assay: transfer cell ELISA, Raji cells; 7.813 ng/ml
[20] = target: MHC class II molecules on MHC class II-expressing Raji cells (human); assay: transfer cell ELISA, Raji cells; 3.906 ng/ml
[21] = target: MHC class II molecules on MHC class II-expressing Raji cells (human); assay: direct ELISA, plate-immobilised Raji cells; 0.5% Casein, 5,000 cells; 31.25 ng/ml
[22] = target: MHC class II molecules on MHC class II-expressing Raji cells (human); assay: BLI; immobilised sample, Raji cells in solution; dark control of FIG. 23
[23] = target: MHC class II molecules on MHC class II-expressing Raji cells (human); assay: direct ELISA, plate-immobilised Raji cells; 3% gelatin, 5,000 cells; 250 ng/ml
[24] = target: MHC class II molecules on MHC class II-expressing Raji cells (human); assay: direct ELISA, plate-immobilised Raji cells; 0.5% Casein, 2,500 cells; 125 ng/ml
[25] = target: MHC class II molecules on MHC class II-expressing Raji cells (human); assay: direct ELISA, plate-immobilised Raji cells; 0.5% Casein, 10,000 cells; 125 ng/ml
[26] = target: MHC class II molecules on MHC class II-expressing Raji cells (human); assay: transfer cell ELISA, Raji cells; 500 ng/ml
[27] = target: MHC class II molecules on MHC class II-expressing Raji cells (human); assay: direct ELISA, plate-immobilised Raji cells; 0.5% Casein, 5,000 cells; 62.5 ng/ml
[28] = target: MHC class II molecules on MHC class II-expressing Raji cells (human); assay: direct ELISA, plate-immobilised Raji cells; 0.5% Casein, 10,000 cells; 62.5 ng/ml
[29] = target: MHC class II molecules on MHC class II-expressing Raji cells (human); assay: transfer cell ELISA, Raji cells; 15.63 ng/ml
[30] = target: MHC class II molecules on MHC class II-expressing Raji cells (human); assay: transfer cell ELISA, Raji cells; 125 ng/ml

OD (ELISA signal) [1]: 0.283 OD
OD (ELISA signal) [2]: 1.63 OD
OD (ELISA signal) [3]: 0.049 OD
OD (ELISA signal) [4]: 0.02 OD
OD (ELISA signal) [5]: 1.29 OD
OD (ELISA signal) [6]: 1.81 OD
OD (ELISA signal) [7]: 0.31 OD
OD (ELISA signal) [8]: 0.276 OD
OD (ELISA signal) [9]: 0.274 OD
OD (ELISA signal) [10]: 0.082 OD
OD (ELISA signal) [11]: 0.594 OD
OD (ELISA signal) [12]: 0.395 OD
OD (ELISA signal) [13]: 1.36 OD
OD (ELISA signal) [14]: 0.011 OD
OD (ELISA signal) [15]: 1.13 OD
OD (ELISA signal) [16]: 0.076 OD
OD (ELISA signal) [17]: 0.304 OD
Substance: IMP321 treated with Peptide-N-Glycosidase F (PNGase F) (Fc fusion)

Bioactivity (binding) [18]: 77%
OD (ELISA signal) [19]: 0.053 OD
OD (ELISA signal) [20]: 0.034 OD
OD (ELISA signal) [21]: 0.143 OD
Bioactivity (binding) [22]: 100%
OD (ELISA signal) [23]: 2.1 OD
OD (ELISA signal) [24]: 0.163 OD
OD (ELISA signal) [25]: 0.176 OD
OD (ELISA signal) [26]: 1.81 OD
OD (ELISA signal) [27]: 0.131 OD
OD (ELISA signal) [28]: 0.142 OD
OD (ELISA signal) [29]: 0.098 OD
OD (ELISA signal) [30]: 0.475 OD
Substance: IMP321, recombinant soluble human LAG-3Ig fusion protein (Fc fusion)
